Results on 1 molecule are retold here after PMC7351111, “WRNIP1 Is Recruited to DNA Interstrand Crosslinks and Promotes Repair” (Cell Reports, 2020).

This assay addresses T1, His-ubiquitin (UniProt P0CG48 1-76).
T1 construct: ubiquitin (monomer); also called recombinant ubiquitin; source: recombinant
As to the kind of experiment: pull-down; 2 ug Flag-HA-WRNIP1 or Flag-HA-WRNIP1-19R with 2 ug His-ubiquitin; 300 mM KCl, 40 mM Tris-HCl pH 8.0, 100 ug/ml BSA; 30 C for 1 h; captured on anti-HA Sepharose at 4 C; immunoblot against WRNIP1 and ubiquitin. Particulars: both partners purified.

B1: Flag-HA-WRNIP1 (purified from Sf9 cells) (natural protein, human, UniProt Q96S55 1-665, looked up)
chain: MEVSGPEDDPFLSQLHQVQCPVCQQMMPAAHINSHLDRCLLLHPAGHAEPAAGSHRAGERAKGPSPPGAKRRRLSESSALKQPATPTAAESSEGEGEEGDDGGETESRESYDAPPTPSGARLIPDFPVARSSSPGRKGSGKRPAAAAAAGSASPRSWDEAEAQEEEEAVGDGDGDGDADADGEDDPGHWDADAAEAATAFGASGGGRPHPRALAAEEIRQMLQGKPLADTMRPDTLQDYFGQSKAVGQDTLLRSLLETNEIPSLILWGPPGCGKTTLAHIIASNSKKHSIRFVTLSATNAKTNDVRDVIKQAQNEKSFFKRKTILFIDEIHRFNKSQQDTFLPHVECGTITLIGATTENPSFQVNAALLSRCRVIVLEKLPVEAMVTILMRAINSLGIHVLDSSRPTDPLSHSSNSSSEPAMFIEDKAVDTLAYLSDGDARAGLNGLQLAVLARLSSRKMFCKKSGQSYSPSRVLITENDVKEGLQRSHILYDRAGEEHYNCISALHKSMRGSDQNASLYWLARMLEGGEDPLYVARRLVRFASEDIGLADPSALTQAVAAYQGCHFIGMPECEVLLAQCVVYFARAPKSIEVYSAYNNVKACLRNHQGPLPPVPLHLRNAPTRLMKDLGYGKGYKYNPMYSEPVDQEYLPEELRGVDFFKQRRC
notes: WRNIP1, human; Purification as in Liang et al., 2016; also called wild-type WRNIP1; source: Sf9, purified
As for B1, the binding result is recorded as “binds”.
